# Source: patent US20260335456A1, “ANTIBODY-DRUG CONJUGATE HAVING CAMPTOTHECIN-BASED DRUG LINKED TO ANTIBODY HAVING LOW ANTIGEN-BINDING AFFINITY THROUGH LINKER” (PINOTBIO, INC., priority 2022, published 2026)
# Where two headings read alike, the source gives them in different places.
# Key:
# [1] = Lactone to carboxylate form conversion in pH 7.4; format: physicochemical
# Protocol: 3-2. Lactone to Carboxylate Form Conversion in pH 7.4
# Afterwards, it was centrifuged at 4 °C, 2 minutes, and 13,000 RCF conditions, and the supernatant was used as a sample.
# The column used was Cortecs C18 2.7 μm, 4.6×50 mm Column, and analysis was conducted under the following conditions. 1) 20 minutes: 5% B, 2) sample injection, 3) 2 minutes: 5% B, 4) 10 minutes: 5% B→50% B, 5) 1 minute: 50% B.
# In order to measure changes over time, the sample chamber was maintained at 37 °C, and the sample was set to be injected every measurement time. The measurement times were 0, 20, 40, 60, 90, 120, 180, 240, 300, 360, 480, 600 and 720 minutes.
# The content was calculated from the peak area of each lactone and carboxylate. Since the absorption coefficients of lactone and carboxylate are different, the lactone area was obtained by multiplying the carboxylate area by the equation below.
# A549 cell line = experiment: Western blot of DDX5 and anti-apoptotic proteins in A549; format: cell-based
# FaDu cell line = experiment: Western blot of DDX5 and anti-apoptotic proteins in FaDu; format: cell-based; conditions: 0, 10, 100 nM
# Protocol: 1-1: Confirmation of Suppressive Activity of Expression of Cancer-Related Survival Genes of DDX5, Survivin, Mcl-1, XIAP and cIAP2 Through Western Blot
# 200,000 FaDu cell lines were seeded per well in a 6-well plate and incubated at constant temperature (37 °C, 5% CO2). […] It was incubated at constant temperature (37 °C, 5% CO2) for 24 hours. The well was treated with 100 μL of RIPA buffer dissolved in protease inhibitor cocktail. […] Protein concentration was determined through protein assay.
# Electrophoresis was performed on the gel at 60V.
# 7 sheets of activated filter paper, PVDF membrane, gel and 7 sheets of filter paper were placed in order in the cassettes of the Trans-Blot® Turbo™ Transfer System, and the lid was closed, and after being inserted into the machine, the protocol started.
# The transferred membrane was immersed in blocking buffer and incubated at constant temperature (RT, 1h). Next, it was incubated at 4 °C overnight in primary antibody solution. It was rinsed with TBST buffer for 3 minutes (repeated 3 times). Incubation was performed (RT, 1h) in a secondary antibody solution conjugated with HRP. It was rinsed with TBST buffer for 3 minutes (repeated 3 times).
# After soaking the membrane in the ECL substrate for 3 to 5 minutes, the signal was determined by using the ChemiDoc™ MP Imaging System.
# A549 = experiment: Cell viability assay in A549; format: cell-based; conditions: A549, FIG. 9
# Protocol: After 24 hours, 100 μL of the drug at 9 concentrations (serial dilution of 1/5 from 1,000 nM) was treated with the cells. […] In this case, a control group that was not treated with the drug (drug concentration 0) was also prepared. It was cultured at constant temperature (37 °C, 5% CO2) for 3 or 6 days. 100 μL of CellTiter-Glo reagent (using CellTiter-Glo® Luminescent Cell Viability Assay kit (Promega, G7571)) was added to each well and pipetted. After incubation at constant temperature (RT) for 10 minutes, luminescence was measured.
# [2] = PBX-7016 pharmacokinetic profile in NOD SCID mice; format: in vivo
# [3] = system: MDA-MB-453 (HER2++) and FaDu (HER2+) cell lines; experiment: Cell viability test in MDA-MB-453 and FaDu; format: cell-based; conditions: 3 days, FIG. 10
# Protocol: Cell viability assay was performed on MDA-MB-453 (HER2++) cell line and FaDu (HER2+) cell line in the same manner as Example 1-2.
# [4] = system: metastatic epithelial cancers; conditions: cited from earlier work
# [5] = system: patients treated with Sacituzumab Govitecan; conditions: cited from earlier work
# [6] = system: cells with an ABCG2 efflux pump; experiment: ABCG2 efflux pump resistance, PBX-001 versus Trodelvy; format: cell-based
# [7] = system: various metastatic solid tumors; conditions: 8 mg/kg to 18 mg/kg; cited from earlier work
molecule,measurement,setting,value
CC[C@@]1(O)C(=O)OCc2c1cc1n(c2=O)Cc2c-1nc1cc3c(c4c1c2[C@@H](NC(=O)[C@@H](C)O)CC4)OCO3 [PBX-7016],rate of conversion from lactone to carboxylate form,"[1]; pH 7.4, 37 °C",0.8 % per minute
same,degraded at 3 µM,"[1]; pH 7.4, 37 °C, PBS with 10% DMSO, read-out: carboxylate form formed",> 86%
same,lactone to carboxylate conversion versus reference compounds,"[1]; pH 7.4, reference: exatecan, DXd, SN-38, FL118",faster and at a higher rate than other reference compounds
same,dual mechanism (topoisomerase I inhibition and DDX5 degradation),A549 cell line,dual MoA that acts as a degrader of DDX5 (p68)
same,DDX5 inhibition,A549 cell line; FIGS. 7 and 8,inhibits DDX5 in a concentration-dependent manner
same,"Survivin, Mcl-1 inhibition",A549 cell line; FIGS. 7 and 8,"observed to inhibit Survivin, Mcl-1"
same,comparison with PBX-7014,A549 cell line; FIGS. 7 and 8,worked better than PBX-7014
same,DDX5 degradation ranking,"A549 cell line; FaDu and A549, 0, 10, 100 nM","followed by 7011, 7016 and 7014"
same,DDX5 degradation ranking,FaDu cell line; FaDu and A549,"followed by 7011, 7016 and 7014"
same,expression of anti-apoptotic proteins,"FaDu cell line; Survivin, cIAP2, Mcl-1, XIAP, 24 hours","decrease in the expression of Survivin, cIAP2, Mcl-1 and XIAP as the concentration increased"
same,efficacy / IC50 in ABCG2-overexpressing cells,A549,still maintained strong efficacy
same,"plasma concentration, individual mice","[2]; IP 1 mg/kg, 4 h, Mouse 4-6",BLOQ
same,"plasma concentration, individual mice","[2]; IP 1 mg/kg, 12 h, Mouse 4-6",BLOQ
same,"plasma concentration, individual mice","[2]; IP 1 mg/kg, 24 h, Mouse 4-6",BLOQ
same,"plasma concentration, individual mice","[2]; IP 1 mg/kg, 48 h, Mouse 4-6",BLOQ
same,"plasma concentration, individual mice","[2]; IV 1 mg/kg, 4 h, Mouse 1-3",BLOQ
same,"plasma concentration, individual mice","[2]; IV 1 mg/kg, 12 h, Mouse 1-3",BLOQ
same,"plasma concentration, individual mice","[2]; IV 1 mg/kg, 24 h, Mouse 1-3",BLOQ
same,"plasma concentration, individual mice","[2]; IV 1 mg/kg, 48 h, Mouse 1-3",BLOQ
same,clearance from the blood,"[2]; intravascular or intraperitoneal, mice",cleared from the blood very quickly
same,IC50 compared to Dxd,[3],IC50 of the same or higher level than Dxd
Sacituzumab Govitecan: humanized IgG linked to SN-38 through a pH-sensitive linker,"anemia, any grade",[4]; 8 mg/kg,38%
same,"anemia, grade 3 or higher",[4]; 8 mg/kg,13%
same,"constipation, any grade",[4]; 8 mg/kg,33%
same,"diarrhea, any grade",[4]; 8 mg/kg,53%
same,"diarrhea, grade 3 or higher",[4]; 8 mg/kg,4%
same,dose reductions,[4]; 8 mg/kg,19%
same,"fatigue, any grade",[4]; 8 mg/kg,61%
same,grade 3 or higher neutropenia after the first dose,[4]; 8 mg/kg,21%
same,"hair loss, any grade",[4]; 8 mg/kg,46%
same,"leukopenia, grade 3 or higher",[4]; 8 mg/kg,6%
same,"nausea, any grade",[4]; 8 mg/kg,59%
same,"neutropenia, any grade",[4]; 8 mg/kg,42%
same,"neutropenia, grade 3 or higher",[4]; 8 mg/kg,30%
same,"vomiting, any grade",[4]; 8 mg/kg,36%
same,"anemia, any grade",[4]; 10 mg/kg,42%
same,"constipation, any grade",[4]; 10 mg/kg,37%
same,"diarrhea, any grade",[4]; 10 mg/kg,62%
same,"diarrhea, grade 3 or higher",[4]; 10 mg/kg,10%
same,dose reductions,[4]; 10 mg/kg,28%
same,"fatigue, any grade",[4]; 10 mg/kg,52%
same,grade 3 or higher neutropenia after the first dose,[4]; 10 mg/kg,47%
same,"hair loss, any grade",[4]; 10 mg/kg,37%
same,"nausea, any grade",[4]; 10 mg/kg,63%
same,"neutropenia, any grade",[4]; 10 mg/kg,58%
same,"neutropenia, grade 3 or higher",[4]; 10 mg/kg,36%
same,"vomiting, any grade",[4]; 10 mg/kg,43%
same,"diarrhea, all grade",[5]; all treated patients,65%
same,"neutropenia, any grade",[5]; all treated patients,61%
same,febrile neutropenia,[5]; patients,7%
same,neutropenic colitis,[5]; patients,0.5%
same,resistance through ABCG2 efflux pump,[6],resistant
same,dose-limiting toxicity,[7],neutropenia
